This note sets out measurements from paper PMC5662768 (Scientific Reports, 2017).

This assay concerns the target T1, glycosylated extracellular domain of human CD38 (aa 46-300) (Homo sapiens, UniProt P28907, glycosylation sites intact (glycosylated)).
T1 construct: CD38, human, extracellular domain aa 46-300 with intact glycosylation sites; Amine-coupled to AR2G biosensors in the BLI experiments; also called recombinant human CD38; ectodomain of human CD38; source: secretory protein from the pCSE2.5 vector
Put plainly: BLI; Octet RED384; recombinant human CD38 amine-coupled to AR2G biosensors; 100 nM and 1 uM nanobody, 5 min association, 10 min dissociation; 25 C; HBS-EP+ pH 7.4; fit 1:1; off-rates only. The conditions noted are these: both partners purified.

B1: single chain variable fragment (scFv) of daratumumab (scFv, V domains shown)
VH: EVQLLESGGGLVQPGGSLRLSCAVSGFTFNSFAMSWVRQAPGKGLEWVSAISGSGGGTYYADSVKGRFTISRDNSKNTLYLQMNSLRAEDTAVYFCAKDKILWFGEPVFDYWGQGTLVTVSS
VL: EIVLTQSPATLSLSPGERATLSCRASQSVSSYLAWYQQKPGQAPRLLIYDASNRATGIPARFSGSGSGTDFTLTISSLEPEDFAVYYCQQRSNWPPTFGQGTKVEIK
notes: VH domain of daratumumab; 15GS linker; VL domain of daratumumab; Order VH - linker - VL as the methods tell it; also called Dara scFv; Daratumumab scFv; source: HEK-6E, transiently transfected (pCSE2.5)
Turning to B1, the koff was 0.0044 s⁻¹.

B2: CD38-specific nanobody MU1053 (family 14), monovalent, from HEK-6E cells (VHH)
VHH: DVQLQESGGGLVQAGGSLRLSCTGSGRTFRNYPMAWFRQAPGKEREFVAGITWVGASTLYADFAKGRFTISRDNAKNTVYLQMNSLKPEDTAVYSCAAGRGIVAGRIPAEYADWGQGTQVTVSS
notes: structure of MU1053 with CD38 is in PDB 5F1O (nanobody chain); also called l-15.3a; source: HEK-6E, transiently transfected (pCSE2.5), purified (Ni-NTA); not shown: His6, C-terminal, kept; Myc, C-terminal, kept
As for B2, the off-rate constant (koff) stood at 0.0009 s⁻¹.
